Patent US20060257938A1, “Method of screening for drugs that block ligand binding to a lipid binding protein” (priority 2005, published 2006)
Numbering of substitutions follows the chain as printed. Where “and” joins values, the source holds several entries; their conditions need not be identical. Equal entries are not always repeated.

B1: 115A1, 72A (protein, listed as Rattus norvegicus)
chain: AFDGTWKVDRNENYEKFMEKMGINVVKRKLGAHDNLKLTITQEGNKFTVKESSNFRNIDVVFELGVDFAYSAADGTELTGTWTMEGNKLVGKFKRVDNGKELIAVREISGNELIATYTYEGVEAKRIFKKE
modifications: PEPTIDE (1)...(131) wild-type rat intestinal fatty acid binding protein
B2: 38Y, 72A (protein, listed as Rattus norvegicus)
chain: B1 chain with L38Y, A115Q
modifications: PEPTIDE (1)...(131) wild-type rat intestinal fatty acid binding protein
B3: 115S1, 72A (protein, listed as Rattus norvegicus)
chain: B1 chain with A115S
modifications: PEPTIDE (1)...(131) wild-type rat intestinal fatty acid binding protein
B4: 21Y, 72A (protein, listed as Rattus norvegicus)
chain: B1 chain with M21Y, A115Q
modifications: PEPTIDE (1)...(131) wild-type rat intestinal fatty acid binding protein
B5: 115E1, 72A (protein, listed as Rattus norvegicus)
chain: B1 chain with A115E
modifications: PEPTIDE (1)...(131) wild-type rat intestinal fatty acid binding protein
B6: 115R1, 72A (protein, listed as Rattus norvegicus)
chain: B1 chain with A115R
modifications: PEPTIDE (1)...(131) wild-type rat intestinal fatty acid binding protein
B7: 102C, 72A (protein, listed as Rattus norvegicus)
chain: B1 chain with L102C, A115Q
modifications: PEPTIDE (1)...(131) wild-type rat intestinal fatty acid binding protein
B8: 78F, 72A (protein, listed as Rattus norvegicus)
chain: B1 chain with L78F, A115Q
modifications: PEPTIDE (1)...(131) wild-type rat intestinal fatty acid binding protein
B9: 115L3, 72A (protein, listed as Rattus norvegicus)
chain: B1 chain with A115L
modifications: PEPTIDE (1)...(131) wild-type rat intestinal fatty acid binding protein
B10: 117D, 72A (protein, listed as Rattus norvegicus)
chain: B1 chain with A115Q, Y117D
modifications: PEPTIDE (1)...(131) wild-type rat intestinal fatty acid binding protein
B11: 115I3, 72A (protein, listed as Rattus norvegicus)
chain: B1 chain with A115I
modifications: PEPTIDE (1)...(131) wild-type rat intestinal fatty acid binding protein
B12: 115P1, 72A (protein, listed as Rattus norvegicus)
chain: B1 chain with A115P
modifications: PEPTIDE (1)...(131) wild-type rat intestinal fatty acid binding protein
B13: 115V2, 72A (protein, listed as Rattus norvegicus)
chain: B1 chain with A115V
modifications: PEPTIDE (1)...(131) wild-type rat intestinal fatty acid binding protein
B14: 115D1, 72A (protein, listed as Rattus norvegicus)
chain: B1 chain with A115D
modifications: PEPTIDE (1)...(131) wild-type rat intestinal fatty acid binding protein
B15: 115K3, 72A (protein, listed as Rattus norvegicus)
chain: B1 chain with A115K
modifications: PEPTIDE (1)...(131) wild-type rat intestinal fatty acid binding protein
B16: 115T3, 72A (protein, listed as Rattus norvegicus)
chain: B1 chain with A115T
modifications: PEPTIDE (1)...(131) wild-type rat intestinal fatty acid binding protein
B17: 115N2, 72A (protein, listed as Rattus norvegicus)
chain: B1 chain with A115N
modifications: PEPTIDE (1)...(131) wild-type rat intestinal fatty acid binding protein
B18: 115H1, 72A (protein, listed as Rattus norvegicus)
chain: B1 chain with A115H
modifications: PEPTIDE (1)...(131) wild-type rat intestinal fatty acid binding protein
B19: 117A, 72A (protein, listed as Rattus norvegicus)
chain: B1 chain with A115Q, Y117A
modifications: PEPTIDE (1)...(131) wild-type rat intestinal fatty acid binding protein
B20: 115Y1, 72A (protein, listed as Rattus norvegicus)
chain: B1 chain with A115Y
modifications: PEPTIDE (1)...(131) wild-type rat intestinal fatty acid binding protein
B21: 115F1, 72A (protein, listed as Rattus norvegicus)
chain: B1 chain with A115F
modifications: PEPTIDE (1)...(131) wild-type rat intestinal fatty acid binding protein
B22: 102A, 72A (protein, listed as Rattus norvegicus)
chain: B1 chain with L102A, A115Q
modifications: PEPTIDE (1)...(131) wild-type rat intestinal fatty acid binding protein
B23: 117C, 72A (protein, listed as Rattus norvegicus)
chain: B1 chain with A115Q, Y117C
modifications: PEPTIDE (1)...(131) wild-type rat intestinal fatty acid binding protein

assay: Probe fluorescence ratio response to arachidonic acid relative to ADIFAB2; assay type: binding; conditions: arachidonic acid; response relative to ADIFAB2
Method in brief: (§1)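 Each fatty acid's response was expressed relative to ADIFAB2, the rI-FABP-L72A probe, as ΔR/ΔRreference. ΔR is the change in the background-corrected two-wavelength intensity ratio R=Fλ1/Fλ2 from its analyte-free baseline R0. Emission was read near about 420-480 nm for unbound and about 495-580 nm for FFA-bound probe.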

| Molecule | DR/DR AA |
| --- | --- |
| B1 | 1.17 |
| B2 | 2.081 |
| B3 | 1.55 |
| B4 | 2.378 |
| B5 | 0.12 |
| B6 | 1.40 |
| B7 | 0.14 |
| B8 | 2.001 |
| B9 | 1.26 |
| B10 | 0.41 and 0.352 |
| B11 | 0.87 |
| B12 | −0.17 |
| B13 | 0.84 |
| B14 | 1.17 |
| B15 | 1.26 |
| B16 | 0.57 |
| B17 | 0.92 |
| B18 | 0.89 |
| B19 | 1.27 and 1.332 |
| B20 | 1.42 |
| B21 | 1.36 |
| B22 | 0.45 |
| B23 | −0.17 |

assay: Probe fluorescence ratio response to linolenic acid relative to ADIFAB2; assay type: binding; conditions: response relative to ADIFAB2
Method in brief: as §1

| Molecule | DR/DR LNA |
| --- | --- |
| B1 | 1.26 |
| B2 | 1.884 |
| B3 | 1.51 |
| B4 | 1.881 |
| B5 | 0.10 |
| B6 | 1.43 |
| B7 | 0.12 |
| B8 | 2.033 |
| B9 | 1.29 |
| B10 | 0.44 and 0.407 |
| B11 | 0.80 |
| B12 | 1.35 |
| B13 | 0.93 |
| B14 | 1.20 |
| B15 | 1.32 |
| B16 | 0.54 |
| B17 | 0.73 |
| B18 | 0.70 |
| B19 | 0.62 and 0.631 |
| B20 | 1.27 |
| B21 | 1.49 |
| B22 | 0.44 |
| B23 | −0.13 |

assay: Probe fluorescence ratio response to linoleic acid relative to ADIFAB2; assay type: binding; conditions: response relative to ADIFAB2
Method in brief: as §1

| Molecule | DR/DR LA |
| --- | --- |
| B1 | 1.22 |
| B2 | 1.818 |
| B3 | 1.51 |
| B4 | 2.015 |
| B5 | 0.15 |
| B6 | 1.45 |
| B7 | 0.12 |
| B8 | 1.955 |
| B9 | 1.24 |
| B10 | 0.44 and 0.380 |
| B11 | 0.81 |
| B12 | 1.37 |
| B13 | 0.87 |
| B14 | 1.19 |
| B15 | 1.23 |
| B16 | 0.45 |
| B17 | 0.78 |
| B18 | 0.74 |
| B19 | 1.01 and 1.045 |
| B20 | 1.38 |
| B21 | 1.46 |
| B22 | 0.35 |
| B23 | −0.19 |

assay: Probe fluorescence ratio response to oleic acid relative to ADIFAB2; assay type: binding; conditions: response relative to ADIFAB2
Method in brief: as §1

| Molecule | DR/DR OA |
| --- | --- |
| B1 | 1.20 |
| B2 | 1.717 |
| B3 | 1.41 |
| B4 | 1.982 |
| B5 | 0.10 |
| B6 | 1.36 |
| B7 | 0.11 |
| B8 | 1.912 |
| B9 | 1.25 |
| B10 | 0.35 and 0.294 |
| B11 | 0.88 |
| B12 | 1.26 |
| B13 | 0.91 |
| B14 | 1.21 |
| B15 | 1.25 |
| B16 | 0.46 |
| B17 | 0.71 |
| B18 | 0.68 |
| B19 | 0.93 and 0.947 |
| B20 | 1.23 |
| B21 | 1.41 |
| B22 | 0.52 |
| B23 | −0.24 |

assay: Probe fluorescence ratio response to palmitic acid relative to ADIFAB2; assay type: binding; conditions: response relative to ADIFAB2
Method in brief: as §1

| Molecule | DR/DR PA |
| --- | --- |
| B1 | 1.11 |
| B2 | 1.518 |
| B3 | 0.77 |
| B4 | 1.094 |
| B5 | 0.08 |
| B6 | 0.70 |
| B7 | 0.09 |
| B8 | 1.416 |
| B9 | 1.15 |
| B10 | 0.17 and 0.142 |
| B11 | 0.84 |
| B12 | 0.70 |
| B13 | 0.85 |
| B14 | 1.14 |
| B15 | 1.18 |
| B16 | 0.49 |
| B17 | 0.56 |
| B18 | 0.51 |
| B19 | 0.32 and 0.331 |
| B20 | 0.73 |
| B21 | 0.77 |
| B22 | 0.20 |
| B23 | −0.12 |
